Experimental data reported in US20180148485A1 (Pieris, published 2018).
Where two headings read alike, the source gives them in different places.

Experiments:
[1] = biological target: T1, recombinant human CD137-Fc fusion protein (#838-4B-100, R&D Systems) (human, UniProt Q07011 24-186); assay: ELISA, CD137-Fc coated, as described in Example 3
T1 construct: also called Fc-fusion of human CD137; not shown: Fc part of the bought fusion protein, not described
Description: The data was fitted with a 1:1 binding model with EC50 value and the maximum signal as free parameters, and a slope that was fixed to unity.

[2] = biological target: T1, recombinant human CD137-Fc fusion …; assay: ELISA, CD137-Fc coated, as described in Example 3; remark: listed apart in the source
[3] = biological target: T1, recombinant human CD137-Fc fusion …; assay: SPR, CD137-Fc captured by anti-human Fc antibody on CM5 chip, 1:1 model
Method: Binding affinities of the CD137-binding lipocalin mutein and the bispecific polypeptides of SEQ ID NO: 46 and SEQ ID NO: 47 to recombinant human CD137-Fc fusion protein (#838-4B-100, R&D Systems) were determined by Surface Plasmon Resonance using a Biacore T200 instrument (GE Healthcare) in analogy to Example 6. Prior to the SPR affinity assay, a CM5 sensor chip was derivatized with an anti-human Fc antibody using the Human Antibody Capture Kit (GE Healthcare # BR-1008-39) according to the manufacturer's instructions.
Four different concentrations (1000 nM, 200 nM, 40 nM and 8 nM) of the bispecific polypeptides were prepared in running buffer (10 mM HEPES, 150 mM NaCl, 0.05% v/v Surfactant P20, 3 mM EDTA, pH 7.4 (GE Healthcare)) and applied to the chip surface. Applying a flow rate of 30 μL/min, the sample contact time was 180 s and dissociation time was 600 s. All measurements were performed at 25° C. […] Prior to the protein measurements three regeneration cycles were performed for conditioning purposes. Data were evaluated with Biacore T200 Evaluation software (V 2.0). Double referencing was used and the 1:1 Binding model was used to fit the raw data.

[4] = biological target: T1, recombinant human CD137-Fc fusion …; assay: SPR, biotinylated CD137-Fc captured on CAP chip, in analogy to Example 6
Method: Biotinlated CD137-Fc was immobilized on sensor chip and binding of the fusion polypeptides and lipocalin mutein was analyzed at different concentrations.

[5] = biological target: T2, recombinant human GPC3 (R&D Systems #2119-GP-050/CF) (human, UniProt P51654 25-559); assay: ELISA, GPC3 coated, anti-NGAL-HRP detection
T2 construct: also called Glypican-3; biotinylated human GPC3
Method: The target was dissolved in PBS (1 μg/mL) and coated overnight on microtiter plates at 4° C. The plate was washed after each incubation step with […] PBS supplemented with 0.1% (v/v) Tween 20 (PBS-T) five times. The plates were blocked with 2% BSA (w/v) in PBS-T for 1 h at room temperature and subsequently washed. Different concentrations of the lipocalin mutein (SEQ ID NO: 10) or the fusion polypeptides were added to the wells and incubated for 1 h at room temperature, followed by a wash step. Bound fusion protein or lipocalin mutein was detected after incubation with 1:1000 diluted anti-human NGAL antibody conjugated to HRP in PBS-T supplemented with 2% (w/v) BSA (PBS-TB). After an additional wash step, fluorogenic HRP substrate (QuantaBlu, Thermo) was added to each well and the fluorescence intensity was detected using a fluorescence microplate reader.
The result of the experiment is depicted in FIG. 2, together with the fit curves resulting from a 1:1 binding sigmoidal fit, where the EC50 value and the maximum signal were free parameters, and the slope was fixed to unity.

[6] = biological target: T2, recombinant human GPC3 (R&D Systems …); assay: ELISA, GPC3 coated, anti-NGAL-HRP detection; remark: listed apart in the source
Description: GPC3 was coated on a microtiter plate and the tested molecules were titrated. […] The data was fitted with a 1:1 binding model with EC50 value and the maximum signal as free parameters, and a slope that was fixed to unity.

[7] = biological target: T2, recombinant human GPC3 (R&D Systems …); assay: ELISA, GPC3 coated, anti-NGAL-HRP detection; remark: listed apart in the source
Description: GPC3 was coated on a microtiter plate and the tested molecules were titrated. Bound molecules were detected via an HRP-labeled anti-human NGAL-specific antibody as described in Example 12. The data was fitted with a 1:1 binding model with EC50 value and the maximum signal as free parameters, and a slope that was fixed to unity.

[8] = biological target: T2, recombinant human GPC3 (R&D Systems …); assay: SPR, biotinylated GPC3 captured on CAP chip, 1:1 model, apparent affinity
Method: Biotinlated GPC3 was immobilized on a sensor chip and binding of the fusion polypeptides and lipocalin mutein was analyzed at different concentrations.

[9] = biological target: T2, recombinant human GPC3 (R&D Systems …); assay: SPR (Biacore T200), biotinylated GPC3 captured on CAP chip, 1:1 model, apparent affinity
Method: In the SPR affinity assay, biotinylated GPC3 was captured on a sensor chip (“CAP chip”) using the Biotin CAPture Kit (GE Healthcare): sensor Chip CAP is pre-immobilized with an ssDNA oligo. Undiluted Biotin CAPture Reagent (streptavidin conjugated with the complementary ss-DNA oligo) was applied at a flow rate of 2 μL/min for 300 s. For analysis of the lipocalin mutein, biotinylated GPC3 at a concentration of 1 μg/mL was used and 0.25 μg/mL of biotinylated GPC3 for the fusions proteins. The biotinylated GPC3 was applied for 300 s at a flow rate of 5 μL/min. GPC3 was biotinylated by incubation with EZ-Link® NHS-PEG4-Biotin (5-fold molar excess (Thermo Scientific)) during two hours at room temperature. The excess of non-reacted biotin reagent was removed by loading the reaction mixture onto a Zeba™ Spin Desalting Plate (Thermo Scientific). The reference channel was loaded with Biotin CAPture Reagent only.
Applying a flow rate of 30 μL/min, the sample contact time was 180 s and dissociation time was 1200 s. All measurements were performed at 25° C. […] Prior to the protein measurements three regeneration cycles were performed for conditioning purposes. Data were evaluated with Biacore T200 Evaluation software (V 2.0). Double referencing was used and the 1:1 Binding model was used to fit the raw data.

T2 sequence (P51654 25-559 limits assumed): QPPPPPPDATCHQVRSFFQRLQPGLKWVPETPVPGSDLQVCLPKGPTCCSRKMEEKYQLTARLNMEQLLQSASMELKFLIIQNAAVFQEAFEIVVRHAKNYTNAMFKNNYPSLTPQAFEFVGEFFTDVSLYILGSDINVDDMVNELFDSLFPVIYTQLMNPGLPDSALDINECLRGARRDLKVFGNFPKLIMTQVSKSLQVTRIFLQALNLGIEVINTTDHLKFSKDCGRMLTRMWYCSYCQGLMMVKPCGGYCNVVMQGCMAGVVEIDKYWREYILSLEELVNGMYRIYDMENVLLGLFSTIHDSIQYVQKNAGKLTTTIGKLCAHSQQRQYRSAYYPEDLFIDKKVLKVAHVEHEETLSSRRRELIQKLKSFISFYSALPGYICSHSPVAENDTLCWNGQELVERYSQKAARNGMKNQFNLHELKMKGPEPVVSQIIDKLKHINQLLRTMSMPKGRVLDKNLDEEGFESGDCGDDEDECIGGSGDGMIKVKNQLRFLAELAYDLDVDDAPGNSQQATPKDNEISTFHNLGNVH

EC50 [1] | EC50 [2] | Kd [3] | Kd [4] | EC50 [5] | EC50 [6] | EC50 [7] | Kd [8] | Kd [9] | Binder
0.43 nM | 0.28 nM | 0.0023 nM | 2.3 nM | – | – | – | – | – | CD137-binding lipocalin mutein of SEQ ID NO: 26 (designed binder) QDSTSDLIPAPPLSKVPLQQNFQDNQFHGKWYVVGQAGNIRLREDKDPIKMMATIYELKEDKSYDVTMVKFDDKKCMYDIWTFVPGSQPGEFTLGKIKSFPGHTSSLVRVVSTNYNQHAMVFFKFVFQNREEFYITLYGRTKELTSELKENFIRFSKSLGLPENHIVFPVPIDQCIDG
– | – | – | – | 0.55 nM | 0.32 nM | 0.55 nM | 0.033 nM | 0.012 nM | GPC3-binding lipocalin mutein of SEQ ID NO: 10 (designed binder, hNGAL-based lipocalin mutein; also called GPC3 lipocalin mutein) QDSTSDLIPAPPLSKVPLQQNFQDNQFQGKWYVVGRAGNVGLREDKDPPKMWATIYELKEDKSYDVTNVRFARKKCTYSIGTFVPGSQPGEFTLGQIKSEPGGTANLVRVVSTNYNQHAMVFFKEVYQNREIFFIILYGRTKELTSELKENFIRFSKSLGLPENHIVFPVPIDQCIDG
